Holding throughout (assay): SPR
On the technique in general: SPR reads the build-up and loss of mass on a sensor chip optically.

Assay [1] deals with B. hermsii strain HS1 FbpC C-terminal complement inhibitory domain, residues 212-374 (Borrelia hermsii strain HS1).
The target in assay [2] is FbpC-C R248A (Borrelia hermsii strain HS1).
For assay [3], the target named is FbpC-C H252A (Borrelia hermsii strain HS1).

This passage reports Kd, koff and kon results from PMC10002728.

B1: human complement C1r, zymogen form (enzyme)
chain: SIPIPQKLFGEVTSPLFPKPYPNNFETTTVITVPTGYRVKLVFQQFDLEPSEGCFYDYVKISADKKSLGRFCGQLGSPLGNPPGKKEFMSQGNKMLLTFHTDFSNEENGTIMFYKGFLAYYQAVDLDECASRSKSGEEDPQPQCQHLCHNYVGGYFCSCRPGYELQEDTHSCQAECSSELYTEASGYISSLEYPRSYPPDLRCNYSIRVERGLTLHLKFLEPFDIDDHQQVHCPYDQLQIYANGKNIGEFCGKQRPPDLDTSSNAVDLLFFTDESGDSRGWKLRYTTEIIKCPQPKTLDEFTIIQNLQPQYQFRDYFIATCKQGYQLIEGNQVLHSFTAVCQDDGTWHRAMPRCKIKDCGQPRNLPNGDFRYTTTMGVNTYKARIQYYCHEPYYKMQTRAGSRESEQGVYTCTAQGIWKNEQKGEKIPRCLPVCGKPVNPVEQRQRIIGGQKAKMGNFPWQVFTNIHGRGGGALLGDRWILTAAHTLYPKEHEAQSNASLDVFLGHTNVEELMKLGNHPIRRVSVHPDYRQDESYNFEGDIALLELENSVTLGPNLLPICLPDNDTFYDLGLMGYVSGFGVMEEKIAHDLRFVRLPVANPQACENWLRGKNRMDVFSQNMFCAGHPSLKQDACQGDSGGVFAVRDPNTDRWVATGIVSWGIGCSRGYGFYTKVLNYVDWIKKEMEEED
As usually defined, the Kd is the constant that tells how readily two partners part at equilibrium. Higher therefore signals weaker binding. Broadly, the koff is the rate constant with which the complex falls apart. Usually kon stands for the second-order rate constant of association. In assay [1], B1 yielded a Kd of 1.2 nM, an off-rate constant (koff) of 5.4e-05 s⁻¹ and an association rate constant (kon) of 44000 M⁻¹ s⁻¹. In assay [2], this molecule registered a Kd of 13 nM, a koff of 0.00063 s⁻¹ and a kon of 69000 M⁻¹ s⁻¹.

B2: human complement C1r, activated form (enzyme)
chain: SIPIPQKLFGEVTSPLFPKPYPNNFETTTVITVPTGYRVKLVFQQFDLEPSEGCFYDYVKISADKKSLGRFCGQLGSPLGNPPGKKEFMSQGNKMLLTFHTDFSNEENGTIMFYKGFLAYYQAVDLDECASRSKSGEEDPQPQCQHLCHNYVGGYFCSCRPGYELQEDTHSCQAECSSELYTEASGYISSLEYPRSYPPDLRCNYSIRVERGLTLHLKFLEPFDIDDHQQVHCPYDQLQIYANGKNIGEFCGKQRPPDLDTSSNAVDLLFFTDESGDSRGWKLRYTTEIIKCPQPKTLDEFTIIQNLQPQYQFRDYFIATCKQGYQLIEGNQVLHSFTAVCQDDGTWHRAMPRCKIKDCGQPRNLPNGDFRYTTTMGVNTYKARIQYYCHEPYYKMQTRAGSRESEQGVYTCTAQGIWKNEQKGEKIPRCLPVCGKPVNPVEQRQRIIGGQKAKMGNFPWQVFTNIHGRGGGALLGDRWILTAAHTLYPKEHEAQSNASLDVFLGHTNVEELMKLGNHPIRRVSVHPDYRQDESYNFEGDIALLELENSVTLGPNLLPICLPDNDTFYDLGLMGYVSGFGVMEEKIAHDLRFVRLPVANPQACENWLRGKNRMDVFSQNMFCAGHPSLKQDACQGDSGGVFAVRDPNTDRWVATGIVSWGIGCSRGYGFYTKVLNYVDWIKKEMEEED
For the molecule B2, the figures for the Kd in assay [1], in assay [2] and in assay [3] were 0.3 nM, 0.19 nM and 2.4 nM, respectively. Also, the off-rate (koff) in assay [1] came out at 1.4e-05 s⁻¹; in assay [2], 9.4e-06 s⁻¹; in assay [3] it was 0.00012 s⁻¹. The figures for the kon in assay [1], in assay [2] and in assay [3] were 48000 M⁻¹ s⁻¹, 45000 M⁻¹ s⁻¹ and 51000 M⁻¹ s⁻¹, respectively.
